Two molecules from US20180193456A1 (HENLIUS BIOTECH, published 2018) can be followed below.

The target in one assay is T1, Mouse VEGFR2-Fc (mouse, UniProt P35918 20-762, limits assumed).
T1 construct: not shown: Fc
Description: ELISA, mouse VEGFR2-Fc coated, anti-human kappa-HRP, A450.

The next assay addresses T2, VEGFR2-Fc (UniProt P35968 20-764, limits assumed).
T2 construct: also called biotinylated VEGFR2-Fc; not shown: Fc
Description: ELISA, VEGFR2-Fc coated, anti-human kappa-HRP, OD450.

The target of assay [1] is T3, VEGFR2-AP (UniProt P35968 20-764).
T3 construct: also called AP-conjugated VEGFR2; AP-conjugated VEGFR; not shown: alkaline phosphatase (AP)
Description: ELISA, antibody captured with anti-Fd, VEGFR2-AP added (axis printed OD450).

Assay [2] concerns the target T3, VEGFR2-AP. Description: competition ELISA: antibody pre-incubated with VEGFR2-AP, mixture added to VEGF-coated wells, A405; blocked ligand: VEGF.
Description: Each antibody:antigen mixture was added to VEGF-coated wells of a microtiter dish. Following an incubation and wash, pNPP was added to the wells and incubated for 30 minutes. AP activity was measured by monitoring the increase in absorbance at 405 nm.
The target of assay [3] is T3, VEGFR2-AP. Description: ELISA, antibody captured with anti-Fc, VEGFR2-AP added (axis printed OD450).
The next assay addresses T4, VEGFR2 (UniProt P35968 20-764, limits assumed).
T4 construct: The SPR paragraphs name neither antigen construct nor format
Description: SPR; antigen construct and format not stated.

The target of assay [4] is T5, VEGFR2-D5-7-AP fusion protein (UniProt P35968 421-764).
T5 construct: domain: domains 5-7; also called domains 5-7 of VEGFR2; not shown: alkaline phosphatase (AP) fusion partner
Description: ELISA: antibody captured with sheep anti-human Fd, VEGFR2-D5-7-AP added, pNPP, A405.

In assay [5] the target is T6, recombinant human VEGFR1-Fc fusion protein (R&D Systems) (human, UniProt P17948-2 27-687, limits assumed).
T6 construct: Bought; not shown: Fc
Put plainly: ELISA, human VEGFR1-Fc coated, goat anti-human F(ab)'2-HRP, OD450.

Assay [6] deals with T7, human VEGFR3-Fc (R&D Systems) (human, UniProt P35916 25-776).
T7 construct: Bought; not shown: Fc
T7 sequence (looked up): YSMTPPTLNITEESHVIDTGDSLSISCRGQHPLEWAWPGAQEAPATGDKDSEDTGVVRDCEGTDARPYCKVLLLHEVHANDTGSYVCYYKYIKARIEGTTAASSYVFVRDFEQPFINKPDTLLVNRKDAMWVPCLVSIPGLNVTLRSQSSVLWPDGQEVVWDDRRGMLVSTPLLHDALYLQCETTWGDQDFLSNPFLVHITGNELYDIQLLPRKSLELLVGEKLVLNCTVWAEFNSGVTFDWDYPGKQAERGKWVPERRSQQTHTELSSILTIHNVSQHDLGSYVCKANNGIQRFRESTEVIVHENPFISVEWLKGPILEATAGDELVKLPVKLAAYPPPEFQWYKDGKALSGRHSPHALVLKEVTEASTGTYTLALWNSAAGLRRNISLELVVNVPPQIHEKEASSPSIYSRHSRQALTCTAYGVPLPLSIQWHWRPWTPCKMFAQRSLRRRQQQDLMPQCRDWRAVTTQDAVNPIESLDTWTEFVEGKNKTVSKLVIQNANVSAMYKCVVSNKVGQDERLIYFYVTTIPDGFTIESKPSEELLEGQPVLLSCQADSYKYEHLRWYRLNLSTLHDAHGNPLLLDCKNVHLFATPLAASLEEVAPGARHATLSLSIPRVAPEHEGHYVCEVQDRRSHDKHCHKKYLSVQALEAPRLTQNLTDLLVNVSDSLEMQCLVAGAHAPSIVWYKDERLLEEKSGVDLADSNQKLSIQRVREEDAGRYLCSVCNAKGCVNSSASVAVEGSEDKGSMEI
Description: ELISA, human VEGFR3-Fc coated, goat anti-human F(ab)'2-HRP, OD450.

T3 sequence (P35968 20-764): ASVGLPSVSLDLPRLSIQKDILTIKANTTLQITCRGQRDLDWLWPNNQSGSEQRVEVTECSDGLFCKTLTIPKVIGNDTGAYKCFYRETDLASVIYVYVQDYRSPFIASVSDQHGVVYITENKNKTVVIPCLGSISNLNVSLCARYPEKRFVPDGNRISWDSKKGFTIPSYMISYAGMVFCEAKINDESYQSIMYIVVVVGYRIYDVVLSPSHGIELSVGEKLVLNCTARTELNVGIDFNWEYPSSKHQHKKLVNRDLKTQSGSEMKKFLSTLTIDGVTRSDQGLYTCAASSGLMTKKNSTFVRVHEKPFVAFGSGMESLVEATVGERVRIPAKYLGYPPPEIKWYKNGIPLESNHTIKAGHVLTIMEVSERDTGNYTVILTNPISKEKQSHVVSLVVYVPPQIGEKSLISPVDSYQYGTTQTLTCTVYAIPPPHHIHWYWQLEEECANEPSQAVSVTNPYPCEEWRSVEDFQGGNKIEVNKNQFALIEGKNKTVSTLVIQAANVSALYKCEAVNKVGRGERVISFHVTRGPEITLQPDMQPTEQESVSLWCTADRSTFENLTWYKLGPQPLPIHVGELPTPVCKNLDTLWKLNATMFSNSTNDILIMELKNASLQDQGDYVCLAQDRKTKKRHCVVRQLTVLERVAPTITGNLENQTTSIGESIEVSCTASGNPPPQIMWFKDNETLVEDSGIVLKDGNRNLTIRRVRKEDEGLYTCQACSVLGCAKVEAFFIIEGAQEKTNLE
T4 sequence (P35968 20-764 limits assumed): as the sequence (P35968 20-764) above
T1 sequence (P35918 20-762 limits assumed): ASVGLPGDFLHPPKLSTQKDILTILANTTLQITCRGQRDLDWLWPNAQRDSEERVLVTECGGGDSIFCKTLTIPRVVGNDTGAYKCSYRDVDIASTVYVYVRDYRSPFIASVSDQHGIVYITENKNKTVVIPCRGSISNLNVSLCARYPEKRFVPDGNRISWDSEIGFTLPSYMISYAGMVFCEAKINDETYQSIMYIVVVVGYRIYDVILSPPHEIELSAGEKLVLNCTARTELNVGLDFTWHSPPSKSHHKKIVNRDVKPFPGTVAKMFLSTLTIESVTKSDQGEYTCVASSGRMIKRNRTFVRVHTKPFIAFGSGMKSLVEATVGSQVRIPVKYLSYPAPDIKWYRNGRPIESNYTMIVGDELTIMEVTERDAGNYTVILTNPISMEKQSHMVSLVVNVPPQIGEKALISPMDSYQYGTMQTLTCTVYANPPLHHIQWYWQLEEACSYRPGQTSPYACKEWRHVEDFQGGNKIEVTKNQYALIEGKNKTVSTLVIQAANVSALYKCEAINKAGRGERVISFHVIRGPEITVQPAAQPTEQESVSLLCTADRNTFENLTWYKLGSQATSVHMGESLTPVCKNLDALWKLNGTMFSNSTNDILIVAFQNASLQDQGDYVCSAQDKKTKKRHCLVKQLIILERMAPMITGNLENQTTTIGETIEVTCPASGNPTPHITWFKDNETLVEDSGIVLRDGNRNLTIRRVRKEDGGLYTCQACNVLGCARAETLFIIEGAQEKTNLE
T2 sequence (P35968 20-764 limits assumed): as the sequence (P35968 20-764) above
T5 sequence (P35968 421-764): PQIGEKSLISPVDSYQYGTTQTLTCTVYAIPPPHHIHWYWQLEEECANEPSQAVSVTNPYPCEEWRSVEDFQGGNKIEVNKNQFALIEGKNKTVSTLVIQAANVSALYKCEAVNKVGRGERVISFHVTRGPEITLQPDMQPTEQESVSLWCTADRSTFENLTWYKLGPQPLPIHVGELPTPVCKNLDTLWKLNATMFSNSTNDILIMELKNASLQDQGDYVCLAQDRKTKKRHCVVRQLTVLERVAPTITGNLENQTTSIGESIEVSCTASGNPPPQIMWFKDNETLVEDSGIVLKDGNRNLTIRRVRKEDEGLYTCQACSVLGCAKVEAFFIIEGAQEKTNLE
T6 sequence (P17948 other isoform, or with tags, fused parts or gaps limits assumed): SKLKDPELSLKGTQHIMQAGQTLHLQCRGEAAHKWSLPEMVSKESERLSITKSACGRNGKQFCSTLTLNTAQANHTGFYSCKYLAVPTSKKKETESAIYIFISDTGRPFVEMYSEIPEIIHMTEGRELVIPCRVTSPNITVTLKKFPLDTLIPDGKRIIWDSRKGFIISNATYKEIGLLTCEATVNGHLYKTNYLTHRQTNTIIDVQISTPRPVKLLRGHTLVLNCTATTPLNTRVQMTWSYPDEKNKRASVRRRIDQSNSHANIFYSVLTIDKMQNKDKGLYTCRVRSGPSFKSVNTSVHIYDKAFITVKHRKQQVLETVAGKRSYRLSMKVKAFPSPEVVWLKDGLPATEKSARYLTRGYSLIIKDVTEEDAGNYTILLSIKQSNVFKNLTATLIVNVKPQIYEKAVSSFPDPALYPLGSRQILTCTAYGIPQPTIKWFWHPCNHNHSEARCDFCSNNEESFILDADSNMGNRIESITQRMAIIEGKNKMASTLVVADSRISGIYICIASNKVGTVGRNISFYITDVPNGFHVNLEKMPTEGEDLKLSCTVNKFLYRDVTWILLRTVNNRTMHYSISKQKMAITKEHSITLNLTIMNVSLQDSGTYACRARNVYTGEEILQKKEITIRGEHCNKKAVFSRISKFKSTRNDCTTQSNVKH
Description for Mouse VEGFR2-Fc: Mouse VEGFR2-Fc was used as the capture reagent, and the amount of captured antibody in each well was quantified using an anti-Human Kappa-HRP-conjugated secondary antibody. The HRP-conjugated secondary antibody was added to the wells, and, following an incubation, excess secondary antibody was washed away. TMB was added to the wells, and following incubation, the reaction was stopped, and HRP activity was measured by monitoring the increase in absorbance at 450 nm.

B1: 1121B (antibody, V domains shown)
VH: EVQLVQSGGGLVKPGGSLRLSCAASGFTFSSYSMNWVRQAPGKGLEWVSSISSSSSYIYYADSVKGRFTISRDNAKNSLYLQMNSLRAEDTAVYYCARVTDAFDIWGQGTMVTVSS
VL: EIVMTQSPATLSLSPGERATLSCRASQSVSSYLAWYQQKPGQAPRLLIYDSSNRATGIPARFSGSGSGTDFTLTISSLEPEDFATYYCLQHNTFPPTFGQGTKVEIKR
notes: Anti-VEGFR2 antibody of US 2009/0306348, positive control; The entries are called variable domains but run into the start of the constant domains
B1: the binding result with Mouse VEGFR2-Fc was “no binding (tested: 500 µg/mL)”; in assay [4], “no binding (tested: 3 µg/mL)”. Further, the concentration for a half-maximal effect (EC50 (read off the curve)) is about 0.5 µg/mL with VEGFR2-Fc, about 0.6 µg/mL with VEGFR2-AP [1] and about 0.3 µg/mL with VEGFR2-AP [3]. Moreover, in the assay with VEGFR2-AP [2], the “IC50 (read off the curve)” value was about 0.05 µg/mL. In addition, binding with VEGFR2 was characterised by a dissociation constant (Kd) of 1.28 nM. Also, the koff in the assay with VEGFR2 amounted to 0.000962 s⁻¹. The kon in the assay with VEGFR2 was found to be 752000 M⁻¹ s⁻¹.

B2: 1121N (antibody, V domains shown)
VH: B1 VH
VL: DIQMTQSPSSVSASIGDRVTITCRASQGIDNWLGWYQQKPGKAPKLLIYDASNLDTGVPSRFSGSGSGTYFTLTISSLQAEDFAVYFCQQAKAFPPTFGGGTKVDIKG
notes: Anti-VEGFR2 antibody of U.S. Pat. No. 7,498,414, positive control; Entries run into the start of the constant domains
Regarding B2, the binding result with Mouse VEGFR2-Fc is listed as “no binding (tested: 500 µg/mL)”; in assay [5], “no binding (tested: 20 µg/mL)”. In [6], the concentration giving a half-maximal response (EC50 (read off the curve)) was about 1 µg/mL.
